Residue numbers refer to the chain shown, from its start. Numbers in names are those of the source.

The results in this text go back to US12365732 (23ANDME, dated 2025).

First the molecules themselves.
T1: hu-CD96 isoform 2 on CHO cells (human, UniProt P40200 22-585)
T1 construct: also called CHO-CD96 (isoform 2); CD96-CHOs
T1 sequence: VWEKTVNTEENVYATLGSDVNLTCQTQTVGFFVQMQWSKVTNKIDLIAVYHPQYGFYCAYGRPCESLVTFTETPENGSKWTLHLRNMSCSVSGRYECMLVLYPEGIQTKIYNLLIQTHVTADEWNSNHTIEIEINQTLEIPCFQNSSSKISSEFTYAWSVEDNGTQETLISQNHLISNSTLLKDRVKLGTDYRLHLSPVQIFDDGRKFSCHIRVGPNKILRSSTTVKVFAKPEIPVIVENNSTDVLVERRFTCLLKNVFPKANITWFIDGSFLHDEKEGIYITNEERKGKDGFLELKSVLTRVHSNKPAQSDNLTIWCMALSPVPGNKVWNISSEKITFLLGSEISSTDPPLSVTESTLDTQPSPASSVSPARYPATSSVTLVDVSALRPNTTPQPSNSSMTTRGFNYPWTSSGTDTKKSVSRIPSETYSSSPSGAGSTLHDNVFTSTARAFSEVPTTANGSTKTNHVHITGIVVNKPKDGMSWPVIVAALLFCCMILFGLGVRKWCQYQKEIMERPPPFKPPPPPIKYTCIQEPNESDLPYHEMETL

T2: cy-CD96 (soluble, extracellular domain) (cynomolgus monkey, UniProt P40200 22-516 (human entry), biotinylated in Octet and blocking ELISA)
T2 construct: the assays name only cy-CD96; also called biotinylated cy-CD96
T2 chain: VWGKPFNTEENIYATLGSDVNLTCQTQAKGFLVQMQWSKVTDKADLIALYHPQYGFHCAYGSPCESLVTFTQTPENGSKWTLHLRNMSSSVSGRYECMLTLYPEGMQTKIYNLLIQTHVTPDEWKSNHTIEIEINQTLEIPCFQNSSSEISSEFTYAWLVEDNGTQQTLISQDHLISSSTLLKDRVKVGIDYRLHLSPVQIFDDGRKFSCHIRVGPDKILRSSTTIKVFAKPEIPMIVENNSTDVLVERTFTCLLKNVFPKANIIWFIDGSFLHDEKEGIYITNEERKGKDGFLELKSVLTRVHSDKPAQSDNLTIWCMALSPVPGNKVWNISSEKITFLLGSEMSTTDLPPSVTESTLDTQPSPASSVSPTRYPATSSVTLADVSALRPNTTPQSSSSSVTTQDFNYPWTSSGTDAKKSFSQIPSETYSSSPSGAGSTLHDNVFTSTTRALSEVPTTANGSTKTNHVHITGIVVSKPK

B1: 7E5, purified hybridoma antibody (antibody, V domains shown)
VH: QVQLKESGPGLVAPSQSLSIICTVSGFSLTNYGIHWIRQPPGKGLEWLGIIWAGGSTNYNSALMSRLTISKDNSKSQVFLKMNSLQTNDTAIYYCARVSMMGFAYWGQGTLVTVSA
VL: QAVVTQESALTTSPGETVTLTCRSSTGAVTTSNYANWVQEKPDHLFTGLIGGTNNRAPGVPARFSGSLIGDKAALTITGAQTEDEAIYFCSLWYGSHWVFGGGTKLTVL
notes: murine hybridoma IgG
B2: 10G1 (clone 10G1.3G8), purified hybridoma antibody (antibody, V domains shown)
VH: QIQLVQSGPELKKPGETVKISCKASGYPFTTYGMSWVKQAPGKGLKWMGWINTDSGVPTYADDFKGRFAFSLETSANTAYLQINSLKNEDAATYFCARNIYYGWGNFDYWGQGTILTVSS
VL: DILMTQSPTTLSVTPGETVSLSCRASQDIYRNLHWYQQKSQGTPRLLIKHASDSISGIPSRFTGSGSGTDFTLSINSVKPEDEGIYYCLQGYSMPYTFGGGTKLEIK
notes: murine hybridoma IgG
B3: 9H4, purified hybridoma antibody (antibody, V domains shown)
VH: EVQLLETGGGLVKSGGSLKLSCAASGFTFSDYYMYWVRQTPEKRLEWVAAISDDGTYTYYPDSVKGRFTISRDNANNYLYLQMSSLKSEDTAIYYCAKAGSYDYFDVWGAGTTVTVSS
VL: DIVLTQSPASLAVSLGQRAIISCKASQSVTFADTGLMHWYQQKPGQQPKLLIYRASNLEVGVPTRFSGSGSGTDFTLNIHPVEEEDVATYYCQQSREYPWTFGGGTKLEIK
notes: murine hybridoma IgG
B4: h10G1 IgG (humanized 10G1) (antibody, V domains shown)
VH: EIQLVQSGSELKKPGASVKVSCKASGYPFTTYGMSWVRQAPGQGLEWMGWINTDSGVPTYADDFKGRFVFSLDTSVSTAYLQISSLKAEDTAVYFCARNIYYGWGNFDYWGQGTLVTVSS
VL: EIVMTQSPDFQSVTPKEKVTITCRASQDIYRNLHWYQQKPDQTPKLLIKHASDSISGIPSRFSGSGSGTDFTLTINSLEAEDAAAYYCLQGYSMPYTFGGGTKVEIKG
notes: human IgG1 N297G
B5: mAb1.v7.NGS11 IgG (antibody, V domains shown)
VH: EVQLVQSGAEVKKPGASVKVSCKASGFTFTNNFMHWVRQAPGQGLEWIGFIHANSGITNINEKFKNRVTMTTDTSTSTAYMELRSLRSEDTAVYYCRSDGVYEGYFDYWGQGTLVTVSS
VL: DIQLTQSPSSLSASVGDRVTITCKASQNVGTAIVWYQQKPGKAPKVLIYSASTRYTGVPSRFSGSGSGTDFTLTISSLQPEDFATYYCQQYSSSPLTFGQGTKVEIKG
notes: human IgG1 N297G
B6: mAb1.v7.NGS10 IgG (antibody, V domains shown)
VH: B5 VH with V101I
VL: B5 VL
notes: human IgG1 N297G
B7: mAb1.v7.NGS9 IgG (antibody, V domains shown)
VH: B5 VH with F50M
VL: B5 VL
notes: human IgG1 N297G
B8: mAb1.v7.2 Fab (Fab, V domains shown)
VH: B5 VH with F33W, M34R, F50M, A53F
VL: DIQLTQSPSSLSASVGDRVTITCKASQNVGTAIVWYQQKPGKAPKVLIYSASTRYTGVPSRFSGSGSGTDFTLTISSLQPEDFATYYCQQYSSSPLTFGQGTKVEIK
notes: also called M34R/P52aF/T97V
B9: mAb1.v7.16 Fab (Fab, V domains shown)
VH: B5 VH with F33W, M34R, F50M, A53P
VL: B8 VL
notes: also called M34R/T97V
B10: mAb1.v7.70 Fab (Fab, V domains shown)
VH: B5 VH with N32R, F33W, F50M
VL: B8 VL
notes: also called N32R/P52aA/T97V
B11: mAb1.v7.9 Fab (Fab, V domains shown)
VH: B5 VH with F33W, M34R, F50M, A53M
VL: B8 VL
notes: also called M34R/P52aM/T97V
B12: mAb1.v7.48 Fab (Fab, V domains shown)
VH: B5 VH with N32R, F33W, F50M, A53H
VL: B8 VL
notes: also called N32R/P52aH/T97V

One assay concerns the target hu-CD96D1 D3-hFc (human). Briefly: ELISA, coated CD96D1D3-hFc. The method, then:
(§1) CD96 binding of purified hybridoma antibodies: The hu-CD96 and cy-CD96 antigen binding ELISA was performed on the purified hybridoma antibodies. Briefly, 96-well MAXISORP® flat bottom plates (Thermo Fisher Scientific, Waltham, MA; Cat #439454) were coated overnight at 4° C. with 0.5 µg/mL of hu-CD96D1 D3-hFc and cynomolgus monkey CD96D1 D3-hFc in PBS. After removing the coating solution, unspecific binding was blocked by PBS containing 1% bovine serum albumin (blocking buffer) and incubation at room temperature for one hour. Plates were then washed three times with PBS and 0.05% TWEEN®-20 (wash buffer). Serial dilution of purified antibodies in PBS containing 0.5% BSA and 0.05% Tween 20 (ELISA buffer) was added to individual wells followed by incubation at room temperature for one hour with agitation. Plates were washed three times with wash buffer, then 100 µL/well of anti-mouse IgG-HRP (Thermo Fisher Scientific, Waltham, MA; Cat #626520) in ELISA buffer was added. […] Enzymatic color development was stopped with 50 µL/well of TMB stop solution (VWR/Avantor, Radnor, PA, USA; Cat #95059-200). Plates were analyzed with a SpectraMax i3X plate reader (Molecular Devices LLC, San Jose, CA, USA) at 450 nm.
On the technique in general: In an ELISA, binding on a coated surface is turned into a signal by an enzyme label.
The EC50 is the midpoint of the concentration-response curve. Molecule B1 registered an EC50 of 0.06 nM. Still for that read-out and setting: the result for B2 reads 0.03 nM; that for B3, 0.24 nM.

Another assay concerns the target T3, cynomolgus monkey CD96D1 D3-hFc (cynomolgus monkey).
T3 construct: also called cy-CD96D1 D3
Briefly: ELISA, coated CD96D1D3-hFc. The method, then: as §1
With B1, the EC50 worked out at 0.53 nM.

B2 came in with an EC50 of 0.2 nM. As to B3, the binding result is reported as “no binding”.

The target of a further assay is T1, hu-CD96 isoform 2 on CHO cells. Briefly: FACS, CD155-Fc-FLAG 10 nM, Ab 20 nM. The method, then: CHO cells stably expressing isoform 2 of hu-CD96 (Origene, catalog #RC221005) were incubated with anti-CD96 antibodies for 20 minutes at 4° C. The cells were washed, and then incubated with 10 nM human CD155-Fc-FLAG for 30 minutes at 4° C. Cells were washed, and then human CD155-Fc-FLAG binding was detected by incubation with anti-FLAG-APC (Columbia Biosciences, catalog #D3-1718-1MG) for 20 minutes at 4° C. Cell binding was analyzed by flow cytometry with a CytoFLEX (Beckman Coulter). CD155 binding is represented as median fluorescence intensity (MedFI).
As shown in Table 20 (below), the anti-CD96 antibodies, mAb1.v7.NGS8, mAb1.v7.NGS9, mAb1.v7.NGS10, mAb1.v7.NGS11, and h10G1 inhibited soluble hu-CD155 binding to CD96-expressing CHO cells dose-dependently and potently. The antibody NK92.39 (Fuchs et al., 2004; Biolegend catalog #338405) inhibited receptor binding similarly.
For the molecule B4, the “CD155-Fc binding (MedFI)” value stood at 4860 MedFI. Still for that read-out and setting: as for B5, the figure is 4460 MedFI; as for B6, 4940 MedFI; as for B7, 4260 MedFI.

The next assay addresses T2, cy-CD96 (soluble, extracellular domain). Briefly: BLI (Octet), biotin-CD96 on SA, Fab analyte. The method, then:
The binding affinity of the generated Fab variants of mAb1.v7 for hu-CD96 and cy-CD96 was determined by OCTET (Pall ForteBio) Bio-Layer Interferometry (BLI) binding analysis. The biotinylated hu-CD96 or biotinylated cy-CD96 was diluted to a final concentration 10 µg/mL in experimental buffer (PBS buffer with 0.01% Tween-20) and immobilized on the Streptavidin Capture (SA) biosensors (Pall ForteBio). Three-fold serial dilutions of the mAb1.v7 Fab variants starting at 1 µM as analytes were diluted in the experimental buffer (PBS buffer with 0.01% Tween-20). The biosensors were equilibrated in experimental buffer at 30° C. for ten minutes prior to starting the experiment. The kinetics experiment was performed with the following steps, where the step name, solution and time are listed: Baseline (buffer—60 seconds), Loading (biotinylated antigen—200 seconds), Baseline 2 (buffer—minimum 120 seconds), Association (analyte—200-300 seconds) and Dissociation (buffer—1000 seconds). The resulting BLI signal from analyte association and dissociation from the […] was analyzed using the Octet Data Analysis software (Pall ForteBio). First a reference subtraction was performed on all recorded traces using the reference well (biosensor that underwent same steps as experimental wells but no analyte for the Association step) and then all the traces were aligned to the beginning of the Association step. The entirety of the Association and Dissociation steps were used in a Global fit (minimum of four analyte concentration traces) in a 1:1 binding model to calculate the K_D values for the 16 selected individual mAb1.v7 Fab variants as summarized in Table 9 (below).
Background: Biolayer interferometry detects binding as a change in optical thickness at a sensor tip.
A word on the Kd: it is the concentration at which binding is half-saturated. The molecule B8 came in with a Kd of 39.1 nM.

Consider B9, for which the Kd was found to be 97.9 nM. The same measure, in the same setting: the result for B10 reads 52.6 nM; that for B11, 129 nM.

Turning to B12, binding was put at a Kd of 68 nM.
